Measured values as given in PMC4763541, “Pitchfork and Gprasp2 Target Smoothened to the Primary Cilium for Hedgehog Pathway Activation” (PLoS ONE, 2016).

Molecular target: T1, full-length hGPRASP2, purified recombinant (human, UniProt Q96D09 1-838)
T1 construct: human G protein-coupled receptor associated sorting protein 2 (GPRASP2), full length, cloned into pETM-11; source: E. coli Rosetta2 (DE3), purified (IMAC, TEV cleavage, second IMAC, SEC on Superdex 200); not shown: His6, N-terminal, cleaved
T1 sequence (looked up): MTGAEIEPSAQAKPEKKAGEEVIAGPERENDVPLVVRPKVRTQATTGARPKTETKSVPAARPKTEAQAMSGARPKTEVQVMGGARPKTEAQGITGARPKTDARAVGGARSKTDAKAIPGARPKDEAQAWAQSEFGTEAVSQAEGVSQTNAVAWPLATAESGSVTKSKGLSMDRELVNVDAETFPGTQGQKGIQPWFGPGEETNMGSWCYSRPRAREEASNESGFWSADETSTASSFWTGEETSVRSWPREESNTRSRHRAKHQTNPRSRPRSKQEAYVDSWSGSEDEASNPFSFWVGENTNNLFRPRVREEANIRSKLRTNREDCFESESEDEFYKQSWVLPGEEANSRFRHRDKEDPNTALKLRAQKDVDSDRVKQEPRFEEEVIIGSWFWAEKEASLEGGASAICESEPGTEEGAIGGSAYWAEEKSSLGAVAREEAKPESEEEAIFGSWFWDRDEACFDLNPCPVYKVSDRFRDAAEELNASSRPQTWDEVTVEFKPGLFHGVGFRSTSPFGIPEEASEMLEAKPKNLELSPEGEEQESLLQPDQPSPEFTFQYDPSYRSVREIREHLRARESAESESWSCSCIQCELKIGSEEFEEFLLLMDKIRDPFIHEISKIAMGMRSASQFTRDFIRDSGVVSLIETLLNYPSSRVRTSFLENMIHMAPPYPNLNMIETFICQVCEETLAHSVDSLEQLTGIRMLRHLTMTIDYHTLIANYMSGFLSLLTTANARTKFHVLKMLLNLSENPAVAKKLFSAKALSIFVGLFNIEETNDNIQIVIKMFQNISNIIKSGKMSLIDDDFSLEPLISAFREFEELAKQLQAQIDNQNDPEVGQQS
Assay: NMR titration; 1D 1H NMR (…), 800 MHz, 298 K; 100 μM peptide before and after addition of hGPRASP2 to 4 μM (1:25 hGPRASP2:peptide); 50 mM Tris.HCl pH 8, 300 mM NaCl, 0.01% 1-thioglycerol; line broadening and loss of intensity of the peptide signals
Conditions: both partners purified

- binding result: binds
Binder: KATLLIWRRTWCRL (peptide, UniProt Q99835 539-552, looked up, source: synthetic peptide (PSL GmbH)) [hSMO-WT peptide (human SMO aa 539-552)]
